Results from publication doi:10.1101/2025.07.01.662521, “Ligand-induced Conformational Plasticity of the CTLH E3 Ligase Receptor GID4” (bioRxiv, 2025).

Target: T1, Human Glucose-induced degradation protein 4 homolog (GID4), residues 116-300, N-terminally Avi-tagged, … (human, UniProt Q8IVV7 116-300, biotin (BirA, on the AVI tag))
T1 construct: Glucose-induced degradation protein 4 homolog (GID4), human, UniProt Q8IVV7, residues 116-300; Construct: N-terminal Strep-SUMO-3C-6xHis-AVI-tag; cleaved with HRV-3C protease, which by the printed order of the tags should leave 6xHis-AVI on the protein; also called hGID4; biotinylated GID4; source: E. coli BL21(DE3), purified (Streptactin XT, HRV-3C cleavage, BirA biotinylation, SEC); not shown: …
T1 sequence (looked up): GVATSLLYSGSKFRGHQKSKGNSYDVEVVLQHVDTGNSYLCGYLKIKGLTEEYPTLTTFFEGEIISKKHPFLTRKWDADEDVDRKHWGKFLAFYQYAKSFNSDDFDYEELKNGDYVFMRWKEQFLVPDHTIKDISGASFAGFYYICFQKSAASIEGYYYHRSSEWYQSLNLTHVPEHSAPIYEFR
Assay: SPR; biotinylated GID4 (116-300) captured on an SA chip (about 2500 RU), Biacore 8K; peptide flowed over; PBS pH 7.4, 0.05% P-20, 1 mM DTT, 1% DMSO
Conditions: both partners purified

Kd: 2130 nM
B1: degron peptide PGLWKS (peptide)
peptide: PGLWKS
notes: Pro/N-degron peptide; also called endogenous degron peptide; PGLWKS degron peptide
